Source: article PMC314469, “Protein Interaction Networks by Proteome Peptide Scanning” (PLoS Biology, 2004)

T1: amphyphisin SH3 (AMPH_HUMAN), P49418
T1 chain: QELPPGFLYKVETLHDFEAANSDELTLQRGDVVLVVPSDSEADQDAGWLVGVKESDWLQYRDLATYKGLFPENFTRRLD


How the values were obtained:
[1] = target: T1, amphyphisin SH3 (AMPH_HUMAN), P49418; assay: SPOT array
[2] = target: endophilin SH3 (SH3G2_HUMAN), Q99962; assay: SPOT array

Binder	normalised SPOT signal, Boehringer light units (BLU); mean over the file's lines of this peptide [1]	normalised SPOT signal, Boehringer light units (BLU); mean over the file's lines of this peptide [2]
GLSTLQRPLKDVTD [Q9H4V5 197-210]	108	90.7
GHTLPPKPPSPRGT [Q9HBQ2 154-168]	577	4690
GPAPLRRPDSSDDR [Q9Y687 56-69]	46.8	45.8
GLWLPRRPARSVGS [Q9H427 273-286]	8350	1850
GLEVPRRPGARTGP [Q9P1Z1 1-14]	29.7	626
GKSHPKRPNSQSQH [Q9H6W1 84-97]	45.5	0
GKVVPLRPPPPPKS [Q9UHN6 29-43]	499	9090
GKRPIKRPAYWRTE [Q9HAH2 675-688]	3.7	12.8
GNIELKRPLIKAPS [Q9BW19 13-26]	25.9	28.8
GLSGLKRPSSSAST [Q9P2Q0 476-489]	32.5	34.9
GLGSPERPPKTSPG [Q9H6F5 54-68]	122	508
GLSGPSRPPPPPQA [Q9UEE5 25-39]	78.2	2950
GLLSLRRPAPRRLE [Q9HCE9 329-342]	13.3	504
GNANIQRPSRKSVN [Q9NRA6 251-264]	3260	166
GPAGLRRPPDKQPS [Q96CI4 37-50]	27.8	383
GKNRPLRPSRRRQL [Q9H5Z2 504-517]	7430	1860
GLGGPQKPPPHTEP [Q9H4M7 492-506]	40.1	79.9
ALHVPAKPPRAAAA [Q8WXD9 1334-1348]	4080	526
GKLPPKRPELPPTL [Q9NVN2 625-638]	30.7	205
GIPPPKRPLKVSQK [Q9P2B8 1668-1681]	116	687
GIKSPSKPPGPNRI [Q9Y474 19-33]	53.5	7270
GKGRPDRPARRPSP [Q9ULT2 465-478]	2720	8700
GNAGPRRPPGDPST [Q9C095 222-236]	37.1	75.8

More lines, now with the values ahead:

normalised SPOT signal, Boehringer light units (BLU); mean over the file's lines of this peptide [1]	normalised SPOT signal, Boehringer light units (BLU); mean over the file's lines of this peptide [2]	Binder
1010	172	GHRPPGRPRRSPKA [O75866 29-42]
105	96.7	GINAFARPSKMPYV [P40222 168-181]
2210	306	GNDDPRRPSRSPPS [O15085 1403-1416]
42.4	295	ALKQLDRPEKGLSE [O14646 1427-1440]
53.6	14.1	AAMHPRRPDGFDGL [Q04197 18-31]
13.6	87.3	GKPNPRRPKDKMSA [O95985 843-856]
1000	10700	GPAPPPRPPQLERH [BAC05410 275-289]
32.6	35.2	GKLKLKRPEQLQEV [O15082 431-444]
1120	175	GMEKIWRPNRVFSL [O60795 134-147]
9.6	259	GPAGPKRPVFILGE [O60307 800-813]
367	112	GLGELLRPYRSASS [Q14526 480-493]
76.5	647	GIPSPRRPMSNLWL [Q14031 953-966]
2140	48.7	GNLDIQRPKRKRKN [Q12972 185-198]
19.7	50.3	ALSHFRRPDVSVQG [Q06265 140-153]
97.6	88.4	GLLLLPRPGRPLDL [P13497 12-25]
53.1	864	GIRRPEKPPYSYIA [Q12946 16-30]
52.6	149	AKTPLSRPVKRNNA [O43525 89-102]
34.9	285	GLRRPEKPPYSYIA [Q12947 93-107]
2410	1890	GLPAPLRPERLAPV [O94850 125-138]
